T1: α-L-iduronidase (IDUA) activity (Homo sapiens, UniProt P35475)
T1 construct: arcelin-5-I (ARC5-I) signal peptide of Phaseolus vulgaris (N); made in house; host or cells: transgenic Arabidopsis thaliana T3 seeds (wild type and cgl mutant)
T1 sequence (P35475 28-653): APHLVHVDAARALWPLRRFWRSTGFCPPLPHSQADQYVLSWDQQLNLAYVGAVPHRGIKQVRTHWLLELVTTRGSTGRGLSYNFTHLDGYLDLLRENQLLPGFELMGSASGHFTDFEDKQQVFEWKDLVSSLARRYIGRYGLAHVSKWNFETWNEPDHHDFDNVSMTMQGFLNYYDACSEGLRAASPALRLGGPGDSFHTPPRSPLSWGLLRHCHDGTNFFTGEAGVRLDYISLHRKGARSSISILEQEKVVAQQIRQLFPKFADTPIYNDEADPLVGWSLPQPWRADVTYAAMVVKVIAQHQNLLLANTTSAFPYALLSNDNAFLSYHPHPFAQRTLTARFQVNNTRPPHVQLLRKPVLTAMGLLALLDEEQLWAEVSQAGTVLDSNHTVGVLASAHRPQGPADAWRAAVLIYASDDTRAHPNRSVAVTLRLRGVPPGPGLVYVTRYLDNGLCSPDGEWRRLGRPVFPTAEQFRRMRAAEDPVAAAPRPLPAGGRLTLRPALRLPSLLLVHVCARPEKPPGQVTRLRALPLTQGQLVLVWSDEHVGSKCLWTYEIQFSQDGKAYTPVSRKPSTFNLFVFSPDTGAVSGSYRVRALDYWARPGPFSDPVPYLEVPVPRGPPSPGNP


What was measured:
[1] = system: transgenic tobacco leaves co-expressing construct (a) (the CnABI3 gene) and construct (b) (encoding GUS); assay: GUS activity in transgenic tobacco leaves co-expressing CnABI3 and Vic-GUS; type: cell-based; details: increasing concentration of natural ABA up to 200 μM
Protocol: FIG. 4. Effect of natural S-(+)-ABA on recombinant bacterial β-glucuronidase (GUS) activities in transgenic tobacco leaves co-expressing construct (a) (the CnABI3 gene) and construct (b) (encoding GUS). […] There is a greater enhancement of GUS activities, with an increasing concentration of natural ABA up to 200 μM.
Transgenic tobacco plants were also generated by co-expressing the CnABI3 gene (construct a) and a gene construct containing the bacterial GUS gene coding region linked to a seed storage protein gene promoter—the vicilin gene promoter (construct b of FIG. 3) (Jiang et al., 1995).
(§1) Stably transformed plants were cultured in magenta boxes at 25° C. and sub-cultured every 3 months. Healthy, fully expanded leaves from 4-week plants were used in the present study.

[2] = system: tobacco leaves co-expressing Arc-IDUA/ABI3 or Arc-IDUA-KDEL/ABI3; assay: Northern blot analysis of α-L-iduronidase mRNA in tobacco co-transformant leaves; type: cell-based; details: 100 μM S(+)-ABA, 6 days, compared to leaves in culture without ABA
Description: FIG. 8. ABA acts at the transcriptional level to enhance the levels of human α-L-iduronidase.

[3] = system: transgenic tobacco leaves co-expressing ABI3 and α-L-iduronidase; assay: IDUA activity in leaves of tobacco co-transformants incubated on culture media with ABA or stress chemicals; type: cell-based
Protocol: FIG. 6. Use of ABA to enhance human α-L-iduronidase activity in plants co-expressing ABI3 and α-L-iduronidase.
FIG. 10. The effects of different treatments designed to enhance endogenous ABA levels on human α-L-iduronidase activities. Leaves of selected tobacco co-transformants (plants co-expressing constructs a and c [Arc-IDUA/ABI3] and plants co-expressing constructs a and d [Arc-IDUA-KDEL/ABI3]) were incubated for 6 days in media containing the following chemicals: (1) polyethylene glycol, PEG; (2) mM NaCl; (3) mM sucrose; (4) mM mannitol, or the leaves were kept on medium at 4 degrees celsius.
as §1

[4] = system: tobacco leaves co-expressing Arc-IDUA/ABI3 or Arc-IDUA-KDEL/ABI3; assay: Western blot of α-L-iduronidase protein in tobacco co-transformant leaves; type: cell-based; details: day 6 of incubation; Arc-IDUA/ABI3 and Arc-IDUA-KDEL/ABI3 leaves
Protocol: FIG. 9. Western blot showing the effects of ABA at different concentrations of the levels of human α-L-iduronidase protein at day 6 of incubation. As with the activity data (FIG. 7), leaves of selected tobacco co-transformants (plants co-expressing constructs a and c [Arc-IDUA/ABI3] and plants co-expressing constructs a and d [Arc-IDUA-KDEL/ABI3]) incubated for 6 days in increasing concentrations of S(+)-ABA, show the maximum α-L-iduronidase protein accumulation levels at 150 μM S(+)-ABA.

[5] = target: T1, α-L-iduronidase (IDUA) activity; assay: IDUA specific activity after purification from transgenic Arabidopsis seeds (4MU formation); type: biochemical; details: for Units/mg (specific activity): units are nmoles 4MU formed per minute
Description: Table 1. Specific activities of Arabidopsis-derived α-L-iduronidase following purification of the recombinant enzyme from T3 seeds using a modified three-column procedure developed for extraction from human liver (Clements et al., 1989).

[6] = step Ab: combined elution fractions from antibody column
[7] = step BGel: combined elution fractions from Bio-Gel P100 column
[8] = step ConA: combined elution fractions from concanavalin A/Sepharose column
[9] = step Crude: clarified lysate (lipid removed)

Molecule	Units/mg (specific activity) [5, 6]	Units/mg (specific activity) [5, 7]	Units/mg (specific activity) [5, 8] [Units/mg]	Units/mg (specific activity) [5, 9] [Units/mg]	other results
CC1=CC(=O)CC(C)(C)[C@@]1(O)/C=C/C(C)=C\C(=O)O [ABA, S-(+)-ABA]	–	–	–	–	effect on recombinant GUS activities [1]: enhanced GUS activities; effect on steady-state mRNA levels encoding α-L-iduronidase [2]: enhanced steady-state mRNA levels; ABA concentration at which α-L-iduronidase activities reach a maximum ([3]; 6 days incubation in increasing concentrations, Arc-IDUA/ABI3 and Arc-IDUA-KDEL/ABI3 leaves): 150 µM; IDUA activities in leaves ([3]; ABA-treated leaves co-expressing ABI3 and IDUA-KDEL, 7 days of incubation): ≤ 16,000 pmol min^−1 mg^−1; enhancement of α-L-iduronidase activity versus transgenic control leaves (no ABA) ([3]; S(+)-ABA at 80 μM, day 7 of incubation, leaves co-expressing constructs a and d (Arc-IDUA-KDEL/ABI3)): ~58 fold; ABA concentration showing maximum α-L-iduronidase protein accumulation levels [4]: 150 µM
[Cl-].[Na+] [NaCl]	–	–	–	–	effect on α-L-iduronidase activities of treatments designed to enhance endogenous ABA levels ([3]; 6 days incubation, compared to ABA control (150 μM S(+)-ABA), NaCl 240 mM or 300 mM): dramatic effectiveness in enhancing α-L-iduronidase activities
IDUA derived from transgenic WT seeds: recombinant human α-L-iduronidase purified from transgenic Arabidopsis wild-type T3 seeds (protein, UniProt P35475 28-653, looked up, made in Arabidopsis seeds) Alpha-L-iduronidase: APHLVHVDAARALWPLRRFWRSTGFCPPLPHSQADQYVLSWDQQLNLAYVGAVPHRGIKQVRTHWLLELVTTRGSTGRGLSYNFTHLDGYLDLLRENQLLPGFELMGSASGHFTDFEDKQQVFEWKDLVSSLARRYIGRYGLAHVSKWNFETWNEPDHHDFDNVSMTMQGFLNYYDACSEGLRAASPALRLGGPGDSFHTPPRSPLSWGLLRHCHDGTNFFTGEAGVRLDYISLHRKGARSSISILEQEKVVAQQIRQLFPKFADTPIYNDEADPLVGWSLPQPWRADVTYAAMVVKVIAQHQNLLLANTTSAFPYALLSNDNAFLSYHPHPFAQRTLTARFQVNNTRPPHVQLLRKPVLTAMGLLALLDEEQLWAEVSQAGTVLDSNHTVGVLASAHRPQGPADAWRAAVLIYASDDTRAHPNRSVAVTLRLRGVPPGPGLVYVTRYLDNGLCSPDGEWRRLGRPVFPTAEQFRRMRAAEDPVAAAPRPLPAGGRLTLRPALRLPSLLLVHVCARPEKPPGQVTRLRALPLTQGQLVLVWSDEHVGSKCLWTYEIQFSQDGKAYTPVSRKPSTFNLFVFSPDTGAVSGSYRVRALDYWARPGPFSDPVPYLEVPVPRGPPSPGNP	9,033 Units/mg	14,700 Units/mg	29	6.3	specific activity of the enzyme ([5]; following chromatography on Bio-Gel P-100, purified from T3 seeds): 14,700 nmol 4 MU/min/mg TSP
IDUA derived from transgenic cg/mutant seeds: recombinant human α-L-iduronidase purified from transgenic Arabidopsis cgl mutant seeds (N-acetylglucosaminyl transferase I deficient) (protein, UniProt P35475 28-653, looked up, made in Arabidopsis cgl mutant seeds) Alpha-L-iduronidase: APHLVHVDAARALWPLRRFWRSTGFCPPLPHSQADQYVLSWDQQLNLAYVGAVPHRGIKQVRTHWLLELVTTRGSTGRGLSYNFTHLDGYLDLLRENQLLPGFELMGSASGHFTDFEDKQQVFEWKDLVSSLARRYIGRYGLAHVSKWNFETWNEPDHHDFDNVSMTMQGFLNYYDACSEGLRAASPALRLGGPGDSFHTPPRSPLSWGLLRHCHDGTNFFTGEAGVRLDYISLHRKGARSSISILEQEKVVAQQIRQLFPKFADTPIYNDEADPLVGWSLPQPWRADVTYAAMVVKVIAQHQNLLLANTTSAFPYALLSNDNAFLSYHPHPFAQRTLTARFQVNNTRPPHVQLLRKPVLTAMGLLALLDEEQLWAEVSQAGTVLDSNHTVGVLASAHRPQGPADAWRAAVLIYASDDTRAHPNRSVAVTLRLRGVPPGPGLVYVTRYLDNGLCSPDGEWRRLGRPVFPTAEQFRRMRAAEDPVAAAPRPLPAGGRLTLRPALRLPSLLLVHVCARPEKPPGQVTRLRALPLTQGQLVLVWSDEHVGSKCLWTYEIQFSQDGKAYTPVSRKPSTFNLFVFSPDTGAVSGSYRVRALDYWARPGPFSDPVPYLEVPVPRGPPSPGNP	2,700 Units/mg	7,800 Units/mg	8	2.04	–

Source: US20090130710A1, “Enhancing vegetative protein production in transgenic plants using seed specific promoters” (priority 2005, published 2009)
